Test results published in paper PMC11581011.

Target: recombinantly expressed FphB protein (rFphB), wild type (Staphylococcus aureus) (UniProt Q2FV90)

**Q.** Which IC50 of inhibition of rFphB (100 nM), cleavage of the 4-MUB substrate (20 μM) does the source give for FphB-OX-5 (peptide) here?
**A.** The IC50 of inhibition of rFphB (100 nM), cleavage of the 4-MUB substrate (20 μM) was 1800 nM.
